Experimental data: PMC12168090

Biological target: NSP5, rotavirus RV Strain A RF, N-terminally Strep-tagged, full length (group A rotavirus, strain RF (RV Strain A RF))
Assay: native MS; full-length NSP5 in 200 mM ammonium acetate pH 6.9, 20 μM monomer; Q-Exactive UHMR, nESI

Substance: NSP5, rotavirus RV Strain A RF, N-terminally Strep-tagged, full length (natural protein)
- stoichiometry N: 10
